The record followed here is the nanobody polyreactivity screen of Harvey et al. (2022).

The nature of this series: yeast display, Sf9 membrane polyspecificity reagent, FACS + sequencing; frameworks hold sequencing errors. A digest of the protocol:
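Galactose-induced (36–48 hours) yeast carrying a synthetic nanobody display library were exposed to 10% biotinylated, detergent-solubilized Sf9 membrane reagent at 4 °C for 1 hour. FACS followed streptavidin microbead enrichment, using low and high (top ~1%) gates for expression (anti-HA) and reagent binding (streptavidin). Colony PCR, MiSeq 2 × 250 sequencing and CDR-length filtering followed. Labels for polyreactivity reflect the gate of origin.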
Regarding “QVQLVESGGGLVQAGGSLRLSCAASGRIFDYNAMGWYRQAPGKERELVAAISVSGGSTYYADSVKGRFTISRDNAKNTVYLQMNSLKPEDTAVYYCNAGYILDSFRYDHWGHGTQVTVSS”, the “polyreactivity (PSR sort gate)” value is listed as “low polyreactivity”.

Take “QVQLVESGGGLVQAGGSLRLSCAASGRIFDYNTMGWYRQAPGKERELVAAITGGTGSTYYADSVKGRFTISRDNAKNTVYLHMNSLKPEDTAVYYCAAGFHKRVTPEILYDFWGQGTQVTVSS”: the “polyreactivity (PSR sort gate)” value is recorded as “low polyreactivity”.

With “QVQLVESGGGLVQAGGSLRLSCAASGRIFDYNTMGWYRQAPGKERELVAAITGGTGSTYYADSVKGRFTISRDNAKNTVYLQMNSLKPEDTAVYYCAAGFHKRVTPEILYDYWGQGTQVTVSS”, the “polyreactivity (PSR sort gate)” value is listed as “low polyreactivity”.

For the sequence “QVQLVESGGGLVQAGGSLRLSCAASGRIFDYYAMGWYRQAPGKERELVAAINSGGSTYYADSVKGRFTISRDNAKNTVYLQMNSLKPEDTAVYYCNALRKSLRGGDYWGQGTQVTVSS”, the “polyreactivity (PSR sort gate)” value is given as “high polyreactivity”.

“QVQLVESGGGLVQAGGSLRLSCAASGRIFDYYAMGWYRQAPGKERELVAAITSGGTTTYYADSVKGRFTNSRDNAKNTVYLQLNSLKPEDTAVYFCAKYPYHIYHTDGDYWGQGTQVTVSS”: the “polyreactivity (PSR sort gate)” value is on record as “low polyreactivity”.

Take “QVQLVESGGGLVQAGGSLRLSCAASGRIFDYYAMGWYRQAPGKERELVAAITVRGGTTYYADSVKGRFTISRDNAKNTVDLQMNSLKPEDTAVYYCAASDRRRYYYWGQGTQVTVSS”: the “polyreactivity (PSR sort gate)” value is reported as “high polyreactivity”.

As to “QVQLVESGGGLVQAGGSLRLSCAASGRIFDYYDLGWYRQAPRKERELVAAITSSGTSTYYADSVKGRFTISRDNAKNTVYLQMNSLKPEDTAVYYCNARSIRPWGENGYWGQGTQVTVSS”, the “polyreactivity (PSR sort gate)” value is “high polyreactivity”.

As to “QVQLVESGGGLVQAGGSLRLSCAASGRIFEDYAMGWYRQAPGKERELVAAISSGGSTYADSVKGRFTISRDNAKNTVYLQMNSLKPEDTAVYYCAAYYRRSTYYYWGQGTQVTVSS”, the “polyreactivity (PSR sort gate)” value is recorded as “high polyreactivity”.

For the sequence “QVQLVESGGGLVQAGGSLRLSCAASGRIFEGYAMGWYRQAPGKEELVAAITSDASTYYADSVKGRFTISRDNAKNTVYLQMNSLNPEDTAVYYCNAYTRGLEYDYWGQGTQVTVSS”, the “polyreactivity (PSR sort gate)” value is reported as “high polyreactivity”.

For the sequence “QVQLVESGGGLVQAGGSLRLSCAASGRIFEHYAMGWYRQAPGKERELVAAITVSGGSTYYADSVKGRFTISRDNAKNTVYLQMNSLKPEDTAVYYCNADQRDYGSYVTKLDYWGQGTQVTVSS”, the “polyreactivity (PSR sort gate)” value is listed as “low polyreactivity”.

On to “QVQLVESGGGLVQAGGSLRLSCAASGRIFEIYALGWYRQAPGKERELVAAISWRGVSTYYADSVKGRFTISRDNAKNTVYLQMKSLKPEDTAVYYCNKDVDYFWYVEYDYWGQGTQVTVSS”, for which the “polyreactivity (PSR sort gate)” value is on record as “low polyreactivity”.

Consider “QVQLVESGGGLVQAGGSLRLSCAASGRIFERYAMGWYRQAPGKERELVAAISVSGSGTYYADSVKGRFTISRDNAKNTVYLQMNSLKPEDTAVYYCAADASLLGLFQGYDYWGQGTQVTVSS”, for which the “polyreactivity (PSR sort gate)” value was “low polyreactivity”.

For “QVQLVESGGGLVQAGGSLRLSCAASGRIFEWNAMGWYRQAPGKERELVAAISWSGGSTYYADSVKGRFTISRDNAKNTVYLQMNSLKPEDTAVYYCAALTYRWSARDYWGQGTQVTVSS”, the “polyreactivity (PSR sort gate)” value is listed as “high polyreactivity”.

For “QVQLVESGGGLVQAGGSLRLSCAASGRIFFANTMGWYRQATGKERELVAAISLSSGSRYYADSVKGRFTISRDNAKNTVYLQMNSLKPEDTAVYYCAARGYSHVASRLYYYWGQGTQVTVSS”, the “polyreactivity (PSR sort gate)” value is given as “high polyreactivity”.

Regarding “QVQLVESGGGLVQAGGSLRLSCAASGRIFFAYAMGWYRQAQGKEREFVAAISDNDGSTYYADSVKGRFTISRDNAKNTVYLQMNSLKPEDTAVYYCNADLGYVYDYCGQGTQVTVSS”, the “polyreactivity (PSR sort gate)” value is “low polyreactivity”.

Turning to “QVQLVESGGGLVQAGGSLRLSCAASGRIFFDYAMGWYRQAPGKERELVADISYNGGSTNYADSVKGRFTISRDNAKNTVYLQMNSLKPEDTAVYYCNRAFVPVYDLDYYWGQGTQVTVSS”, the “polyreactivity (PSR sort gate)” value is recorded as “low polyreactivity”.

Consider “QVQLVESGGGLVQAGGSLRLSCAASGRIFFDYAMGWYRQAPGKERELVAVITSSGSSTYYADSVKGRFTISRDNAKNTVYLQMNSLKPEDTAVYYCNAARLYSGLWYGYDYWGQGTQVTVSS”, for which the “polyreactivity (PSR sort gate)” value is on record as “high polyreactivity”.

“QVQLVESGGGLVQAGGSLRLSCAASGRIFFGYAMGWYRLAPGKERELVAAISYGGGRTYYADSVKGRFTISRDNAKNTVSLQMNSLKPEDTAVDYCNKRVTGGSWSPGHYRYNYWGQGSQVTVSS”: the “polyreactivity (PSR sort gate)” value is “high polyreactivity”.

“QVQLVESGGGLVQAGGSLRLSCAASGRIFFGYAMGWYRQAPGKERELVASISRGGSTNYADSVKGRFTISRDNAKNTVYLQMNSLKPEDTAVYYCAASRYLQRYGMYYWGQGTQVTVSS”: the “polyreactivity (PSR sort gate)” value is “high polyreactivity”.

As to “QVQLVESGGGLVQAGGSLRLSCAASGRIFFGYAMGWYRQAPGKERELVATITSGGSTYYADSVKGRFTISRDNAKNTVYLQMNSLKPEDTAVYYCASQLHWVFTSGWAYRGSYDYWGQGTQVTVSS”, the “polyreactivity (PSR sort gate)” value is reported as “low polyreactivity”.

On to “QVQLVESGGGLVQAGGSLRLSCAASGRIFFLYAMGWYRQAPGKERELVASITRRGGSTYYADSVKGRFTISRDNAKNTVYLQMNSLKPEDTAVYYCAAELYRSNVYHYDYWGQGTQVTVSS”, for which the “polyreactivity (PSR sort gate)” value is reported as “high polyreactivity”.

For “QVQLVESGGGLVQAGGSLRLSCAASGRIFFPYDMGWYRQAPGKERELVAAITNSGGRTYYADSVKGRFTISRDNAKNTVYLQMNSLKPEDTAVYYCAARYGSGGDYWGQGTQVTVSS”, the “polyreactivity (PSR sort gate)” value is “low polyreactivity”.

In the case of “QVQLVESGGGLVQAGGSLRLSCAASGRIFFRYAMGWSRQAPGKEREFVATITWSGGRTHYADSVKGRFTISRDNAKNTVYLQMNSLKPEDTAVYYCAASYHRYAFDYWGQGTQVTGSS”, the “polyreactivity (PSR sort gate)” value is “high polyreactivity”.

“QVQLVESGGGLVQAGGSLRLSCAASGRIFFTNAMGWYRQAPGKERELVAAISKSGARTYYADSVKGRFTISRDNAKNTVYLQMNSLKPEDTAVYYCAADVSVSGYGYWGQGTQVTVSS”: the “polyreactivity (PSR sort gate)” value was “high polyreactivity”.

Turning to “QVQLVESGGGLVQAGGSLRLSCAASGRIFFTNAMGWYRQAPGKERELVATISSSDGSTYYADSVKGRFTISRDNAKNTVYLQMNSLNPEDTAVYYCAALYSFRGSRQYTYKYYYWGQGTQVTVSS”, the “polyreactivity (PSR sort gate)” value is reported as “high polyreactivity”.

With “QVQLVESGGGLVQAGGSLRLSCAASGRIFFTYAMGWSRQAPGKERELVAAISWSGGGTYYADSVKGRFTISRDNAKNTVYLQMNSLKPEDTAVYYCAADNTILFDYWGQGTQVTVSS”, the “polyreactivity (PSR sort gate)” value is given as “low polyreactivity”.

On to “QVQLVESGGGLVQAGGSLRLSCAASGRIFFVNAMGWYRQAPGKERELVAAISRGGTTYYADSVKGRFTISRDNAKNTVYLQMNSLKPEDTAVYYCNVAYTPSFYRYDYWGQGTQVTVSS”, for which the “polyreactivity (PSR sort gate)” value is “low polyreactivity”.

Turning to “QVQLVESGGGLVQAGGSLRLSCAASGRIFFVNAMGWYRQAPGKERELVAAISSGGSTNYADSVKGRFTISRDNAKNTVYLQMNSLKPEDTAVYYCASSHYRYGTQGYDYWGQGTQVTVSS”, the “polyreactivity (PSR sort gate)” value is listed as “low polyreactivity”.

Regarding “QVQLVESGGGLVQAGGSLRLSCAASGRIFFVYAMGWYRQAPGKERELVAAITSSGGGTYYADSVKGRFTISRDNAKNTVYLQMNSLKPEDTAVYYCATRYPYRPGYEYWGQGTQVTVSS”, the “polyreactivity (PSR sort gate)” value is on record as “low polyreactivity”.

As to “QVQLVESGGGLVQAGGSLRLSCAASGRIFFVYAMGWYRQAPGKERELVAGIRSSGGSTYYADSVKGRFTISRDNAKKTVYLQMNSLKPEDTAVYYCAARRVGYPSPYSTYGMYYWGQGTQVTVSS”, the “polyreactivity (PSR sort gate)” value was “high polyreactivity”.

Regarding “QVQLVESGGGLVQAGGSLRLSCAASGRIFFVYAMGWYRQAPGKERELVAGIRSSGGSTYYADSVKGRFTISRDNAKNTVYLQMNSLKPEDTAVYYCAARRVGYPSPYSTYGMYYWGQGTQVTVSS”, the “polyreactivity (PSR sort gate)” value was “high polyreactivity”.

“QVQLVESGGGLVQAGGSLRLSCAASGRIFFYNDMGCYRQAPGKERELVASISSGTSTYYADSVKGRFTISRDNAKNTVYLQMNSLKPEDTAVYYCATGRPWHYSSATYDYWGQGTQVTVSS”: the “polyreactivity (PSR sort gate)” value was “low polyreactivity”.

Regarding “QVQLVESGGGLVQAGGSLRLSCAASGRIFFYNGMGWYRQAPGKERELVAAINRSGGSTYYADSVKGRFTISRDNAKNTVYLQMNSLKPVDTAVYYCNAASFTVPMDFWGQGTQVTVSS”, the “polyreactivity (PSR sort gate)” value is listed as “low polyreactivity”.

On to “QVQLVESGGGLVQAGGSLRLSCAASGRIFFYNTKGWYRQAPGKERELVAVISSSDGSTYADSVKGRFTISRDNAKNTVYLQMNSLKPEDTAVYYCNAGWTRYVPYVRMDYWGHGTQVTVSS”, for which the “polyreactivity (PSR sort gate)” value is “high polyreactivity”.

As for “QVQLVESGGGLVQAGGSLRLSCAASGRIFFYYAMGWYRQAPGKERELVAAISSGGGSTYYADSVKGRFTISRDNAKNTVYLQMNSLKPEDTAVYYCAARTYRRRYLGWSQYVGPYDYWGQVTQVTVSS”, the “polyreactivity (PSR sort gate)” value is on record as “high polyreactivity”.

Turning to “QVQLVESGGGLVQAGGSLRLSCAASGRIFGAYAKGWYRQAPGTERELVAAISGSGGSTSYADSVKGRFTISRDNAKNTVYLQMNSLKPEDTAVYYCNAVSYVDIWDDRRYYYWVQGTQVTVSS”, the “polyreactivity (PSR sort gate)” value was “low polyreactivity”.

As for “QVQLVESGGGLVQAGGSLRLSCAASGRIFGAYAMGWYRQAPGKERELVAAITQSGGSTFYADSVKGRFTISRDNAKNTVYLQMNSLKPEDTAVYYWGQGTQVTVSS”, the “polyreactivity (PSR sort gate)” value is recorded as “low polyreactivity”.

On to “QVQLVESGGGLVQAGGSLRLSCAASGRIFGAYAMGWYRQAPWKERELVAAITSRGGNTYYADSVKGRFTISRDNAKNTVYLQMNSLKPEDTAVYYCAARHDKRRQYYVGQSAFDYWGQGTQVTVSS”, for which the “polyreactivity (PSR sort gate)” value is recorded as “low polyreactivity”.

Consider “QVQLVESGGGLVQAGGSLRLSCAASGRIFGAYTMGWYRQAPGKEREFVAAITQSGGSTYYADSVKGRFTISRDNAKNTVYLQMNSLKPEDTAVYYCAATRYVLVGWRYAVWYDYWGQGTQVTVSS”, for which the “polyreactivity (PSR sort gate)” value was “high polyreactivity”.

On to “QVQLVESGGGLVQAGGSLRLSCAASGRIFGDNAMGWSRQAPGKEWELVAAITVNAGSTHYAASVKGRFTISRDNAKNTVYLQMNSLKPEDTAVYYCAKQTAPVTGVGPYFYWGQGTQVTVSS”, for which the “polyreactivity (PSR sort gate)” value is listed as “low polyreactivity”.

For the sequence “QVQLVESGGGLVQAGGSLRLSCAASGRIFGDYAMGWYRQAPGKERELVADITWSGGSTYYADSVKGRFTISRDNAKNTVYLQMNSLKPEDTAVYYCNADYDGGYYGDLSLYDYWGQGSQVTVSS”, the “polyreactivity (PSR sort gate)” value was “low polyreactivity”.
